± gives the uncertainty stated by the source.
Assay: self-splicing fitness, log relative to wild type (ln ratio); higher = more splicing; Tetrahymena group I intron in knt gene, E. coli kanamycin selection, DiMSum; sequences stand for … in CUCUCU…GGAGGGAAAAGUUAUCAGGCAUGCACCUGGUAGCUAGUCUUUAAACCAAUAGAUUGCAUCGGUUUAAAAGGCAAGACCGUCAAAUUGCGGGAAAGGGGUCAACAGCCGUUCAGUACCAAGUCUCAGGGGAAACUUUGAGAUGGCCUUGCAAAGGGUAUGGUAAUAAGCUGACGGACAUGGUCCUAACCACGCAGCCAAGUCCUAAGUCAACAGAUCUUCUGUUGAUAUGGAUGCAGUUCACAGACUAAAUGUCGGUCGGGGAAGAUGUAUUCUUCUCAUAAGAUAUAGUCGGACCUCUCCUUAAUGGGAGCUAGCGGAUGAAGUGAUGCAACACUGGAGCCGCUGGGAACUAAUUUGUAUGCGAAAGUAUAUUGAUUAGUUUUGGAGUACUCGUGGUCG
Summary of the method: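 The eight P1ex-region nucleotides of an intron in the knt kanamycin-resistance gene on pET-22b(+) were all randomised and the library put into E. coli BL21(DE3). Six replicate transformations were grown overnight at 37°C or 30°C on LB agar with or without 25 μg/mL kanamycin, together with 100 μg/mL carbenicillin, 50 μM IPTG and 0.2% rhamnose. Colonies were pooled and amplicon-sequenced on an Illumina HiSeq 2500. Fitness from DiMSum is the error-weighted combination of wild-type-normalised replicate fold changes, kanamycin over none.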

Sequence | self-splicing fitness (ln) (30 °C) | self-splicing fitness (ln) (37 °C)
GACUAGCAAUAUUACGUUCA | -0.661 ± 0.11 | -0.533 ± 0.12
GACUAGCAAUAUUACGUUGU | -3.19 ± 0.14 | -2.17 ± 0.12
GAGAAGCAAUAUUACGAAAA | -3.53 ± 0.4 | -2.2 ± 0.31
GAGAAGCAAUAUUACGAACC | -0.324 ± 0.14 | -0.188 ± 0.22
GAGAAGCAAUAUUACGAGCA | -1.79 ± 0.15 | -0.727 ± 0.14
GAGAAGCAAUAUUACGCGAA | -2 ± 0.11 | -1.93 ± 0.17
GAGAAGCAAUAUUACGCUGG | -2.87 ± 0.41 | -1.64 ± 0.41
GAGAAGCAAUAUUACGCUUA | -2.41 ± 0.12 | -1.24 ± 0.13
GAGAAGCAAUAUUACGGAAG | -3.57 ± 0.16 | -2.39 ± 0.14
GAGAAGCAAUAUUACGGCUA | 0.0865 ± 0.09 | -0.0778 ± 0.1
GAGAAGCAAUAUUACGGGCC | -2.03 ± 0.22 | -2.56 ± 0.41
GAGAAGCAAUAUUACGGGCU | -2.57 ± 0.14 | -1.16 ± 0.14
GAGAAGCAAUAUUACGGGGA | -2.34 ± 0.22 | -2.67 ± 0.28
GAGAAGCAAUAUUACGGGUA | -2.02 ± 0.15 | -2.14 ± 0.16
GAGAAGCAAUAUUACGGUCG | -0.943 ± 0.11 | -0.253 ± 0.11
GAGAAGCAAUAUUACGUAAC | -1.62 ± 0.11 | -0.536 ± 0.12
GAGAAGCAAUAUUACGUCCC | -0.258 ± 0.28 | -0.337 ± 0.29
GAGAAGCAAUAUUACGUUAC | -3.39 ± 0.27 | -3.05 ± 0.35
GAGAAGCAAUAUUACGUUGU | -3.19 ± 0.19 | -3.31 ± 0.32
GAGCAGCAAUAUUACGACCA | -1.17 ± 0.14 | -1.02 ± 0.15
GAGCAGCAAUAUUACGACGG | -4.27 ± 0.26 | -2.18 ± 0.17
GAGCAGCAAUAUUACGAGAG | – | -2.19 ± 0.28
GAGCAGCAAUAUUACGAUUU | -0.179 ± 0.068 | -0.211 ± 0.094
GAGCAGCAAUAUUACGCACA | -0.256 ± 0.21 | -0.415 ± 0.14
GAGCAGCAAUAUUACGCACG | -1.11 ± 0.061 | -0.692 ± 0.083
GAGCAGCAAUAUUACGCAUC | -3.22 ± 0.2 | -3.08 ± 0.37

Sequence | self-splicing fitness (ln) (30 °C) | self-splicing fitness (ln) (37 °C)
GAGCAGCAAUAUUACGCCUG | -2.2 ± 0.19 | -2.32 ± 0.42
GAGCAGCAAUAUUACGCGCG | -1.25 ± 0.1 | 0.406 ± 0.12
GAGCAGCAAUAUUACGCUGU | -3.32 ± 0.18 | -2.52 ± 0.19
GAGCAGCAAUAUUACGGACG | -2.19 ± 0.42 | -1.72 ± 0.33
GAGCAGCAAUAUUACGGAUU | -1.2 ± 0.1 | 0.538 ± 0.11
GAGCAGCAAUAUUACGGCCA | -0.255 ± 0.097 | -0.361 ± 0.14
GAGCAGCAAUAUUACGGGAC | -2.82 ± 0.19 | -2.74 ± 0.15
GAGCAGCAAUAUUACGUAGG | -2.83 ± 0.13 | -2.54 ± 0.2
GAGCAGCAAUAUUACGUCAA | -1.14 ± 0.24 | -2.12 ± 0.25
GAGCAGCAAUAUUACGUCAG | -3.23 ± 0.21 | -2.12 ± 0.26
GAGCAGCAAUAUUACGUCGU | -1.35 ± 0.13 | -2.39 ± 0.2
GAGCAGCAAUAUUACGUCUC | -2.48 ± 0.15 | -2.23 ± 0.22
GAGCAGCAAUAUUACGUGAC | -2.38 ± 0.15 | -1.64 ± 0.15
GAGCAGCAAUAUUACGUGCC | -1.58 ± 0.41 | -1.34 ± 0.26
GAGCAGCAAUAUUACGUUAC | -2.55 ± 0.14 | -1.75 ± 0.13
GAGGAGCAAUAUUACGAAUG | – | -1.7 ± 0.43
GAGGAGCAAUAUUACGACCG | – | -0.621 ± 0.31
GAGGAGCAAUAUUACGACGG | -3.25 ± 0.3 | -2.07 ± 0.31
GAGGAGCAAUAUUACGAGAG | -2.77 ± 0.32 | -2.76 ± 0.41
GAGGAGCAAUAUUACGAGCA | -3.52 ± 0.48 | -2.4 ± 0.46
GAGGAGCAAUAUUACGAUAU | -1.34 ± 0.26 | -2.53 ± 0.45
GAGGAGCAAUAUUACGCAGA | -3.91 ± 0.34 | -2.86 ± 0.32
GAGGAGCAAUAUUACGCGGU | -3.21 ± 0.28 | -2.76 ± 0.31
GAGGAGCAAUAUUACGCUCA | -0.973 ± 0.24 | -0.181 ± 0.27
GAGGAGCAAUAUUACGGAAA | -3.13 ± 0.16 | -2.94 ± 0.26
GAGGAGCAAUAUUACGGCUA | -1.75 ± 0.12 | -1.37 ± 0.11

Sequence | self-splicing fitness (ln) (30 °C) | self-splicing fitness (ln) (37 °C)
GAGGAGCAAUAUUACGGGAC | -2.42 ± 0.27 | -2.41 ± 0.27
GAGGAGCAAUAUUACGGGGG | -3.09 ± 0.27 | -3.13 ± 0.47
GAGGAGCAAUAUUACGUCGC | – | -1.54 ± 0.33
GAGGAGCAAUAUUACGUGGU | -4.05 ± 0.34 | -2.77 ± 0.33
GAGGAGCAAUAUUACGUGUG | -2.33 ± 0.22 | -2.54 ± 0.26
GAGGAGCAAUAUUACGUGUU | -3.03 ± 0.21 | -3.82 ± 0.42
GAGGAGCAAUAUUACGUUCA | -1.18 ± 0.081 | -0.275 ± 0.11
GAGUAGCAAUAUUACGAAGG | – | -2.74 ± 0.44
GAGUAGCAAUAUUACGACAG | -3.07 ± 0.44 | -2.99 ± 0.24
GAGUAGCAAUAUUACGACAU | -0.282 ± 0.014 | -0.127 ± 0.033
GAGUAGCAAUAUUACGACGG | -2.74 ± 0.2 | -1.57 ± 0.25
GAGUAGCAAUAUUACGAGUG | -2.34 ± 0.091 | -0.452 ± 0.11
GAGUAGCAAUAUUACGAUAG | -3.53 ± 0.26 | -2.61 ± 0.28
GAGUAGCAAUAUUACGAUCA | 0.0664 ± 0.19 | -0.761 ± 0.21
GAGUAGCAAUAUUACGAUCC | -1.55 ± 0.092 | -0.509 ± 0.11
GAGUAGCAAUAUUACGAUGU | -2.23 ± 0.11 | -0.716 ± 0.12
GAGUAGCAAUAUUACGAUUA | -0.577 ± 0.092 | -0.317 ± 0.081
GAGUAGCAAUAUUACGGACU | -0.25 ± 0.072 | -0.487 ± 0.096
GAGUAGCAAUAUUACGGAGG | -3.45 ± 0.36 | -0.837 ± 0.36
GAGUAGCAAUAUUACGGGCA | -1.18 ± 0.22 | -1.05 ± 0.19
GAGUAGCAAUAUUACGGGUC | -2.57 ± 0.2 | -1.81 ± 0.18
GAGUAGCAAUAUUACGGGUG | -2.78 ± 0.14 | -1.71 ± 0.14
GAGUAGCAAUAUUACGGUGA | -1.93 ± 0.16 | -1.62 ± 0.14
GAGUAGCAAUAUUACGUGGC | -2.33 ± 0.15 | -2.03 ± 0.28
GAGUAGCAAUAUUACGUGGG | -3.53 ± 0.24 | -2.94 ± 0.23

— the supplement of paper PMC7877785
